# Measured values reported in patent publication US20220380463A1 (Adimab, published 2022).
# Changes are numbered by the printed parent chain.
# B1: SAD10318_P03_E07 (ADI-48601) (antibody, V domains shown)
# VH: QVQLVQSGAEVKKPGASVKVSCKASGFNIKDYYMHWVRQAPGQRLEWMGWIDLENANTIYDAKFQGRVTITRDTSASTAYMELSSLRSEDTAVYYCARDHYHRYFYDVWGQGTLVTVSS
# VL: DIVMTQSPDSLAVSLGERATINCKSSQSLLNAHTGKNYLAWYQQKPGQPPKLLIYWASTRESGVPDRFSGSGSGTDFTLTISSLQAEDVAVYYCHQSHSRRTFGGGTKVEIK
# notes: IgG; also called Ab191
# B2: SAD10320_P02_C06 (ADI-48654) (antibody, V domains shown)
# VH: B1 VH with H100A, H102G
# VL: B1 VL with H33R, H95K, H98G, S99H
# notes: IgG; also called Ab84
# B3: SAD10318_P04_A12 (ADI-48618) (antibody, V domains shown)
# VH: B1 VH with H100A, Y104H
# VL: B1 VL with N31H, A32P, H33R, H95K, H98Y, S99H, R100H
# notes: IgG; also called Ab224
# B4: SAD10318_P03_H08 (ADI-48607) (antibody, V domains shown)
# VH: B1 VH with H100A, R103H
# VL: B1 VL with H33R, K36H, Y38H
# notes: IgG; also called Ab202
# B5: SAD10320_P01_D01 (ADI-48644) (antibody, V domains shown)
# VH: B1 VH with H100A, H102G, R103H, Y104G
# VL: B1 VL with H33R, H95K, H98Y, R100H
# notes: IgG; also called Ab48
# B6: SAD10320_P01_B01 (ADI-48643) (antibody, V domains shown)
# VH: B1 VH with H100A, H102G, R103H, Y104I
# VL: B1 VL with H33R, H95K, H98Y, S99V, R100H
# notes: IgG; also called Ab46
# B7: SAD10319_P01_D01 (ADI-48622) (antibody, V domains shown)
# VH: QVQLVQSGAEVKKPGASVKVSCKASGYTFKSYDMHWVRQAPGQRLEWMGWIDAGTGNTKYSQKFQGRVTITRDTSASTAYMELSSLRSEDTAVYYCARDAYGRYFYDVWGQGTLVTVSS
# VL: B1 VL with H33R, H95K, H98Y
# notes: IgG; also called Ab231
# B8: SAD10320_P01_A02 (ADI-48646) (antibody, V domains shown)
# VH: B1 VH with H100A, H102P, R103H
# VL: B1 VL with H33R, H95K, H98Y, S99H, R100E
# notes: IgG; also called Ab53
# B9: SAD10318_P04_D11 (ADI-48616) (antibody, V domains shown)
# VH: B1 VH with H100A, H102G, R103H
# VL: B1 VL with H33R, K36H, Y38H, H98Y, R100H
# notes: IgG; also called Ab219
# B10: SAD10320_P02_C04 (ADI-48648) (antibody, V domains shown)
# VH: B1 VH with H100A, H102G
# VL: B1 VL with H33R, H95K, S99T
# notes: IgG; also called Ab71
# B11: SAD10318_P03_F08 (ADI-48606) (antibody, V domains shown)
# VH: B1 VH
# VL: B1 VL with Y38H, H95K, H98Y, T102H
# notes: IgG; also called Ab200
# B12: SAD10318_P03_E08 (ADI-48605) (antibody, V domains shown)
# VH: B1 VH
# VL: B1 VL with Y38H, H95K, H98Y, S99H, T102H
# notes: IgG; also called Ab199
# B13: SAD10320_P02_H05 (ADI-48652) (antibody, V domains shown)
# VH: B1 VH with H100A, Y101H
# VL: B1 VL with H33R, H95K
# notes: IgG; also called Ab81
# B14: SAD10318_P04_C11 (ADI-48615) (antibody, V domains shown)
# VH: B1 VH with Y101H, H102G
# VL: B1 VL with H33R, K36H, Y38H, H95K, H98Y
# notes: IgG; also called Ab218
# B15: SAD10320_P02_B06 (ADI-48653) (antibody, V domains shown)
# VH: B1 VH with H100A, H102G, R103H, Y104W
# VL: B1 VL with H33R, H95K, H98Y, S99H, R100H
# notes: IgG; also called Ab83
# B16: SAD10320_P03_D09 (ADI-48655) (antibody, V domains shown)
# VH: B1 VH with H100A, H102G, R103H, Y104D
# VL: B1 VL with H33R, H95K, H98W, S99H
# notes: IgG; also called Ab100
# B17: SAD10318_P04_H11 (ADI-48617) (antibody, V domains shown)
# VH: B1 VH with H102G, V108H
# VL: B1 VL with S7Y, K36H, H98Y, R100H
# notes: IgG; also called Ab223
# B18: SAD10318_P04_B11 (ADI-48614) (antibody, V domains shown)
# VH: B1 VH
# VL: B1 VL with Y38H, H95K, H98Y
# notes: IgG; also called Ab217
# B19: SAD10318_P03_F07 (ADI-48602) (antibody, V domains shown)
# VH: B1 VH with H100A, Y101H, H102G, F105H
# VL: B1 VL with S10C, H33R, K36H, H95K, R100H
# notes: IgG; also called Ab192
# B20: SAD10318_P04_D10 (ADI-48613) (antibody, V domains shown)
# VH: B1 VH with H100A, H102G, R103H, F105H
# VL: B1 VL with N31H, H33R, Y38H, H95K, H98Y
# notes: IgG; also called Ab211
# B21: SAD10320_P02_F05 (ADI-48651) (antibody, V domains shown)
# VH: B1 VH with H100A, H102G, F105H
# VL: B1 VL with H33R, H95K, H98Y, S99R, R100H
# notes: IgG; also called Ab79
# B22: SAD10318_P04_C10 (ADI-48612) (antibody, V domains shown)
# VH: B1 VH with H100A, H102G, F105H, Y106H
# VL: B1 VL with H33R, K36H, Y38H, H98Y, S99H
# notes: IgG; also called Ab210
# B23: SAD10320_P01_F03 (ADI-48647) (antibody, V domains shown)
# VH: B1 VH with H100A, H102P, R103H
# VL: B1 VL with H33R, H95K, H98Y, S99L, R100H
# notes: IgG; also called Ab65
# B24: SAD10320_P01_E01 (ADI-48645) (antibody, V domains shown)
# VH: B1 VH with H100A, H102G, R103H, Y104V
# VL: B1 VL with H33R, H95K, H98Y, S99K, R100H
# notes: IgG; also called Ab49
# B25: SAD10320_P02_E04 (ADI-48649) (antibody, V domains shown)
# VH: B1 VH with H100A, R103E
# VL: B1 VL with H33R, H95K, S99V
# notes: IgG; also called Ab72
# Target: T1, human CD3 on CD3+ Jurkat cells (human, UniProt P07766 23-207)
# T1 construct: whole, on cells; Native CD3 complex on cells; the other CD3 chains are not specified for this assay; also called Human CD3+ Jurkat
# T1 sequence (P07766 23-207): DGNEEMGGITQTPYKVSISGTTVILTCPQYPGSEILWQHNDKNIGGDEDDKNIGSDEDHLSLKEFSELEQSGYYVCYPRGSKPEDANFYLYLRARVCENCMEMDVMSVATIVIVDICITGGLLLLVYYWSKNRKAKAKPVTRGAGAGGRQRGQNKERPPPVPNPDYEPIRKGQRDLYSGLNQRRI
# Assay: flow cytometry, 100 nM IgG on CD3+ Jurkat cells, pH 6.0
# Protocol: (§1) Specificity of the anti-CD3 antibodies for human CD3+ Jurkat cells compared to CHO-S cells at pH 6.0 and 7.4 was determined using a FACS cell binding assay. Briefly, CD3+ human Jurkat cells and CHO-S cells were thawed and washed with cold PBSF buffer, pH 7.4 (PBS+0.1% BSA, pH 7.4). About 200,000 cells were aliquoted per well of a 96-well plate and pelleted by centrifugation (5 minutes at 500×g). The cells were washed with either PBSF pH 7.4 or PBSF pH 6.0 (PBS+0.1% BSA, pH 6.0), and then resuspended in 100 ul in either PBSF pH 7.4 or PBSF pH 6.0 with IgG antibody produced in yeast (100 nM). The mixture (cells+antibody) was incubated for 20 minutes on ice, then washed twice with either PBSF pH 7.4 or PBSF pH 6.0. Cells were resuspended in 50 ul of propidium iodide (1:500 dilution) and anti-human IgG-RPE (1:100 dilution) prepared in either PBSF pH 7.4 or PBSF pH 6.0, then incubated for 20 minutes on ice in the dark before cells were washed twice with either PBSF pH 7.4 or PBSF pH 6.0. Binding was analyzed on FACS Canto II.
# (§2) Cell binding assays. CD3+ human Jurkat cells (ATCC) and CHO-S cells (Invitrogen/ThermoFisher) were thawed and washed with cold PBSF buffer, pH 7.4 (PBS+0.1% BSA, pH 7.4). About 200,000 cells were aliquoted per well of a 96-well plate (FACS Assay Plate VWR BD 353263) and pelleted by centrifugation (5 minutes at 500×g). The cells were washed with either PBSF pH 7.4 or PBSF pH 6.0 (PBS+0.1% BSA, pH 6.0), and then resuspended in 100 ul in either PBSF pH 7.4 or PBSF pH 6.0 with IgG antibody (100 nM) produced in yeast as described above. The mixture (cells+antibody) was incubated for 20 minutes on ice, then washed twice with either PBSF pH 7.4 or PBSF pH 6.0. Cells were resuspended in 50 ul of propidium iodide (Roche; 1:500 dilution) and anti-human IgG-RPE (Southern Biotech; 1:100 dilution) prepared in either PBSF pH 7.4 or PBSF pH 6.0, then incubated for 20 minutes on ice in the dark before cells were washed twice with either PBSF pH 7.4 or PBSF pH 6.0. Binding was analyzed on FACS Canto II.
row,MFI pH 6.0 [MFI],Binder
1,1080,B1
2,5590,B2
3,170,B3
4,86,B4
5,860,B5
6,4200,B6
7,3060,B7
8,1270,B8
9,36,B9
10,6160,B10
11,89,B11
12,282,B12
13,5750,B13
14,40,B14
15,3110,B15
16,1180,B16
17,166,B17
18,148,B18
19,202,B19
20,52,B20
21,5620,B21
22,42,B22
23,4340,B23
24,450,B24
25,2320,B25

# Target: T1, human CD3 on CD3+ Jurkat cells
# Assay: flow cytometry, 100 nM IgG on CD3+ Jurkat cells, pH 7.4
# Protocol: as §1, §2
row,MFI pH 7.4 [MFI],Binder
1,52,B1
2,4890,B2
3,41,B3
4,52,B4
5,124,B5
6,265,B6
7,567,B7
8,53,B8
9,41,B9
10,5140,B10
11,76,B11
12,55,B12
13,4760,B13
14,37,B14
15,1030,B15
16,581,B16
17,53,B17
18,58,B18
19,34,B19
20,66,B20
21,4110,B21
22,50,B22
23,141,B23
24,41,B24
25,639,B25

# Target: T1, human CD3 on CD3+ Jurkat cells
# Assay: flow cytometry on CD3+ Jurkat cells, ratio of MFI at pH 6.0 to pH 7.4
# Protocol: as §1, §2
row,MFI pH 6.0/MFI pH 7.4,Binder
1,20.7,B1
2,1.1,B2
3,4.2,B3
4,1.7,B4
5,6.9,B5
6,15.9,B6
7,5.4,B7
8,24.1,B8
9,0.9,B9
10,1.2,B10
11,1.2,B11
12,5.2,B12
13,1.2,B13
14,1.1,B14
15,3,B15
16,2,B16
17,3.1,B17
18,2.6,B18
19,5.9,B19
20,0.8,B20
21,1.4,B21
22,0.8,B22
23,30.9,B23
24,11.1,B24
25,3.6,B25
